Results as given in patent US6140466.

Legend:
[1] = target: Zif268 variant A14 finger 3 helix residues changed (FIG. 9) (synthetic (Zif268 variant)) (UniProt Q6NTY6); test: SPR
[2] = test system: Zif268 variant G6 finger 2 helix residues changed (FIG. 9) (synthetic (Zif268 variant)); test: SPR
[3] = test system: Zif268 variant G4 finger 2 helix residues changed (FIG. 9) (synthetic (Zif268 variant)); test: SPR
[4] = target: Zif268 variant C9 finger 1 helix residues changed (FIG. 9) (synthetic (Zif268 variant)) (UniProt Q6NTY6); test: SPR; details: equivalent to Zif268
[5] = test system: MBP-C7-C7 (six-finger) (synthetic (Zif268 variant, mouse)); test: EMSA
[6] = test system: MBP-Sp1C-C7 (six-finger) (synthetic (Sp1C/Zif268 variant)); test: EMSA
[7] = target: MBP-Sp1C (synthetic (human Sp1 variant)) (UniProt P08047); test: EMSA; details: 0.1 mM ZnCl2, RT
[8] = test system: C7-C7-VP16 (synthetic (Zif268 variant)); test: cell_activity; details: HeLa luciferase reporter
[9] = target: Zif268 displayed on phage (Mus musculus) (UniProt P08046); test: SELEX; details: phage panning, same level as BSA
[10] = 0.1 mM ZnCl2, 100 mM KCl, poly(dI-dC), RT
[11] = 9 bp half-site, 0.1 mM ZnCl2, RT

Chain of MBP-Sp1C (synthetic (human Sp1 variant)) (P08047 626-708, change not shown): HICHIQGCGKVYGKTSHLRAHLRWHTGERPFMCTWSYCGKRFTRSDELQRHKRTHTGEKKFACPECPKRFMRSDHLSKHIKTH
Chain of Zif268 variant A14 finger 3 helix residues changed (FIG. 9) (synthetic (Zif268 variant)) (Q6NTY6 whole entry, change not shown): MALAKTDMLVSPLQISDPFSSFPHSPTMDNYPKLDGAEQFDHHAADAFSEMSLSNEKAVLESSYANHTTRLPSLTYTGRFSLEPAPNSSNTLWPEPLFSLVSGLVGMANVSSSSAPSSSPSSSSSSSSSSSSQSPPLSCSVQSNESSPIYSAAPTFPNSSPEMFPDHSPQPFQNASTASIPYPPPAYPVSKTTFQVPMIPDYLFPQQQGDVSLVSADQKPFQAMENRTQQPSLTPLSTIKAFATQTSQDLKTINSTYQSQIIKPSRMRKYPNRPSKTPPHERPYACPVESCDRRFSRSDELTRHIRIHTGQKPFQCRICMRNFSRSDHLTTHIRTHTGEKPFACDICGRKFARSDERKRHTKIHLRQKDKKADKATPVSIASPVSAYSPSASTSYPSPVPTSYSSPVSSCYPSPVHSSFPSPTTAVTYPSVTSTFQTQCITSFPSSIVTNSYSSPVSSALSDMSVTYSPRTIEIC
Chain of Zif268 variant C9 finger 1 helix residues changed (FIG. 9) (synthetic (Zif268 variant)) (Q6NTY6 whole entry, change not shown): as above

CCTGCGTGGGCGCCCTTTTGGGCGCCCACGCAGG [Z268N consensus hairpin]
binding signal (fold lower affinity than Zif268) [1]: 2
binding signal (fold weaker than TTG site) [2]: 4
binding signal (fold weaker than TTG site) [3]: 4
binding signal (fold of Zif268 affinity) [4]: 1

CCTGCGTTGGCGCCCTTTTGGGCGCCAACGCAGG [TTG finger 2 hairpin (HIV-1 subsite)]
binding signal (fold of Zif268-consensus affinity) ([2]; specificity by on-rate): 1
binding signal (fold of Zif268-consensus affinity) ([3]; equivalent to Zif268 on its consensus): 1

GATGTATGTAGCGGCGGCGGCGGCGGCGTAAGTAATGC (double strand) [(GCG)6 site probe]
Kd ([5]; 0.1 mM ZnCl2, RT): 17.3 nM

GATGTATGTAGCGTGGGCGGCGTGGGCGTAAGTAATGC (double strand) [C7-C7 site probe]
Kd ([6]; 0.1 mM ZnCl2, RT): 1.8 nM
Kd [5, 10]: 0.46 nM

GATGTATGTAGCGTGGGCGGGGGCGGGGTAAGTAATGC (double strand) [Sp1C-C7 site probe]
Kd [6, 10]: 0.55 nM
Kd [5, 10]: 2.4 nM

GATGTATGTAGCGTGGGCGTAAGTAATGC (double strand) [C7 site probe]
Kd [6, 11]: 4.9 nM
Kd [5, 11]: 6.1 nM

GATGTATGTAGGGGCGGGGTAAGTAATGC (double strand) [Sp1C site probe]
Kd [6, 11]: 27.4 nM
Kd [7]: 40.8 nM

GCGTGGGCG (double strand) [6x C7 site SV40 promoter reporter]
activity (fold activation) [8]: 3

GCGTGGGCGGCGTGGGCG (double strand) [6x C7-C7 site SV40 promoter reporter]
activity (fold activation) [8]: > 300

GCGTGGGCGGGGGCGGGG (double strand) [6x Sp1C-C7 site SV40 promoter reporter]
activity (fold activation) [8]: 3

TFIIIA fingers 1-3 site (panning)
binding signal (fold less than consensus) [9]: 9
